US20230304022, “CHIMERIC POLYPEPTIDES HAVING TARGETED BINDING SPECIFICITY” (The Scripps Research Institute, published 2023)

How the values were obtained:
Avr15 TALE NTD SSR = Avr15 TALE NTD SSR (synthetic, UniProt Q56830 SEQ:151-834, K230S,Q231S,W232R (KQW to SSR))
Avr15 TALE NTD SRC = Avr15 TALE NTD SRC (synthetic, UniProt Q56830 SEQ:151-834, K230S,Q231R,W232C (KQW to SRC))
Avr15 TALE NTD KRSNG = Avr15 TALE NTD KRSNG (synthetic, UniProt Q56830 SEQ:151-834, Q231R,W232S,S233N (KQWSG to KRSNG))
Avr15 TALE NTD PTR = Avr15 TALE NTD PTR (synthetic, UniProt Q56830 SEQ:151-834, K230P,Q231T,W232R (KQW to PTR))
Avr15 TALE NTD PKD = Avr15 TALE NTD PKD (synthetic, UniProt Q56830 SEQ:151-834, K230P,Q231K,W232D (KQW to PKD))

Binder | binding result (Avr15 TALE NTD SSR) | binding result (Avr15 TALE NTD SRC) | binding result (Avr15 TALE NTD KRSNG) | binding result (Avr15 TALE NTD PTR) | binding result (Avr15 TALE NTD PKD)
G-Avr15 site (dsDNA) DNA 1: GATAAACCCCCTCCAA DNA 2: TTGGAGGGGGTTTATC | binds | binds | binds | – | –
A-Avr15 site (dsDNA) DNA 1: AATAAACCCCCTCCAA DNA 2: TTGGAGGGGGTTTATT | – | – | – | binds | binds
